This note sets out measurements from patent publication CN115057931A.

This experiment deals with human LAG-3, full length, on transfected cells (human) (UniProt P18627). As to the kind of experiment: cell-based or functional assay.
Sequence of UniProt P18627 (P18627 23-525 limits assumed): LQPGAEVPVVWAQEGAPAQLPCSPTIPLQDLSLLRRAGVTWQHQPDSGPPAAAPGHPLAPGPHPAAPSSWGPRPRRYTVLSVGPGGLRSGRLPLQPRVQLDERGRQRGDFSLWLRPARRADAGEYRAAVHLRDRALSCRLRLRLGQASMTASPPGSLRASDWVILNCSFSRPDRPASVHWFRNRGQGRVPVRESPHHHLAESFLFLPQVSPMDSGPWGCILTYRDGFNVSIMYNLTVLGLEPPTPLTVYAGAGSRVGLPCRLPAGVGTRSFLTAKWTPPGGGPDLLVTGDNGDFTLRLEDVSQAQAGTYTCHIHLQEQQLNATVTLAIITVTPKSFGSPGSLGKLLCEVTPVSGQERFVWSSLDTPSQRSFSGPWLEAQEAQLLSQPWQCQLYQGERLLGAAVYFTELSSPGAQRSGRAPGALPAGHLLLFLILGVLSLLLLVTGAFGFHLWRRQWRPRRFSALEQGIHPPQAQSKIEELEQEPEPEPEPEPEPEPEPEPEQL

B1: BMK7 (antibody, from another filing, V domains shown)
VH: QVQLVESGGGVVQPGRSLRLSCVASGFTFSSYGMHWVRQAPGKGLEWVAIIWYDGSNKYYADSVKGRFTISRDNSKNTQYLQMNSLRAEDTAVYYCASVATSGDFDYYGMDVWGQGTTVTVSS
VL: EIVLTQSPATLSLSPGERTTLSCRASQRISTYLAWYQQKPGQAPRLLIYDASKRATGIPARFSGSGSGTGFTLTISSLEPEDFAVYYCQQRSNWPLTFGGGTKVEIK
With B1, the EC50(nM), IL-2 luciferase reporter in Jurkat cells expressing human LAG-3 with Raji cells and SEE was 2.65 nM.
